# From article PMC2676576 (Structure (London, England : 1993), 2009)
# Tests used:
# bovine ubiquitin = bovine ubiquitin (bovine, UniProt P0CG53 1-76); test: SPR
# [1] = molecular target: STAM(10-390) of the ΔCT construct (human, UniProt Q92783 10-390); test: AUC
# Chain of STAM(10-390) of the ΔCT construct (Q92783 10-390, stated change not applied): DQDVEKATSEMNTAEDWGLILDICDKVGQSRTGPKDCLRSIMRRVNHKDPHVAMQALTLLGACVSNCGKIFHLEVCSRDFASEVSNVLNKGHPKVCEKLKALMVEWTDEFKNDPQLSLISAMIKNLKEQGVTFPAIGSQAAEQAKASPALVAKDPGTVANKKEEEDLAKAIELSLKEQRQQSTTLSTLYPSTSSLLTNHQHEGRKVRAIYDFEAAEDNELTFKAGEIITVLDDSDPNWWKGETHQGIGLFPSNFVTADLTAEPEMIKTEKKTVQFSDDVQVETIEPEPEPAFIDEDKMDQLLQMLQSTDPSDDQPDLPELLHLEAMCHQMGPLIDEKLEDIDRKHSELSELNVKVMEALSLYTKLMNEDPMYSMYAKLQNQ
Kd (bovine ubiquitin) [µM],stoichiometry N [1],Binder
157,–,his-tagged STAM VHS domain (residues 1-143) (domain or fragment) not shown
–,1 Hrs:STAM,"Hrs(1-557) of the ΔCT construct (domain or fragment, human, UniProt O14964 1-557, looked up) MGRGSGTFERLLDKATSQLLLETDWESILQICDLIRQGDTQAKYAVNSIKKKVNDKNPHVALYALEVMESVVKNCGQTVHDEVANKQTMEELKDLLKRQVEVNVRNKILYLIQAWAHAFRNEPKYKVVQDTYQIMKVEGHVFPEFKESDAMFAAERAPDWVDAEECHRCRVQFGVMTRKHHCRACGQIFCGKCSSKYSTIPKFGIEKEVRVCEPCYEQLNRKAEGKATSTTELPPEYLTSPLSQQSQLPPKRDETALQEEEELQLALALSQSEAEEKERLRQKSTYTSYPKAEPMPSASSAPPASSLYSSPVNSSAPLAEDIDPELARYLNRNYWEKKQEEARKSPTPSAPVPLTEPAAQPGEGHAAPTNVVENPLPETDSQPIPPSGGPFSEPQFHNGESEESHEQFLKALQNAVTTFVNRMKSNHMRGRSITNDSAVLSLFQSINGMHPQLLELLNQLDERRLYYEGLQDKLAQIRDARGALSALREEHREKLRRAAEEAERQRQIQLAQKLEIMRQKKQEYLEVQRQLAIQRLQEQEKERQMRLEQQKQTVQMR"
